# In patent publication US20130177579A1 (BIOALLIANCE C V, published 2013):
# B1: antibody 122-72 (antibody, V domains shown)
# VH: EVQLVESGGGLVQPKGSLKLSCAASGFTFNTYAMNWVRQAPGKGLEWVARIRSKSNNYATYYADSVKDRFTISRDDSQSMLYLQMNNLKTEDTAMYYCVAYGSRNYWGQGTTLTVSS
# VL: DIVMTQSPSSLTVTAGEKVTMSCKSSQSLLNSGNQKNYLTWYQQKPGQPPKLLIYWASTRESGVPDRFTGSGSGTDFTLTISSVQAEDLAVYYCQNDYSYPYTFGGGTKLEIKR
# notes: Mouse IgM, kappa from a hybridoma; tested as hybridoma culture supernatant; Antibody 60-43 is said to have the same CDRs
# B2: antibody 6-90 (antibody, mouse IgM, V domains shown)
# VH: EVELQQFGIEMVKPGASVKISCKASGYIFTDYHMDWVRQSHGKSLEWIGDIDPKYDRVTYNQKFKGKASLTADKSSSTAYMELRSLTSEDTAVYYCAKTGAYGDYLAYWGQGTLVTVSA
# VL: DLVMTQTPLSLPVSLGDQASISCRSSQSLVHSDGNTYFYWYLQKPGQSPKLLIYKVSNRFSGVPDRFSAGGSGTYFTLKISRVEAEDLGVYFCSQTTHFPPTFGGGTKLEIKR
# notes: Mouse IgM, kappa from a hybridoma; tested as hybridoma culture supernatant
# B3: antibody 55-31 (antibody, mouse IgM, V domains shown)
# VH: QVQLQQPGAELVKPGTSVKLSCKASGYNFTSYWINWVKLRPGQGLEWIGDIYPGSGSTNYNEKFKSKATLTVDTSSSTAYMQLSSLASEDSALYYCARSAYRYDWFAYWGQGTLVTVSA
# VL: DIQMTQSPASLSVSVGETVTITCRASENIYSNLAWYQQKQGKSPQLLVYAATNLADGVPSRFSGSGSGTQYSLKINSLQSEDFGSYYCQHFWGTPYTFGGGTKLEIKR
# notes: as for B2
# Key:
# [1] = molecular target: T1, human transferrin receptor expressed by Jurkat cells (human, UniProt P02786 1-760); experiment: FACS, Jurkat cells, 1X
# T1 construct: Endogenous receptor on Jurkat cells; MEM189 was the positive control; also called TfR on T leukemia cell line Jurkat
# [2] = molecular target: T1, human transferrin receptor expressed by …; experiment: FACS, Jurkat cells, 1/10X
# [3] = molecular target: T2, human transferrin receptor expressed by normal human cells (RBC, PMN, lymphocytes, monocytes, platelets, … (human, UniProt P02786 1-760)); experiment: FACS, platelets, donor D102, 1/10x
# T2 construct: The assay is whole-cell FACS on normal donor cells; also called TfR on normal cells
# Description: (§1) The hyper-immuned serum (Hyp-serum) or the corresponding cell marker antibodies for certain cell types were included as positive controls.
# (§2) 1×10⁵ cells were seeded in each well of a v-bottomed 96-well plate and incubated with 50 μl of hybridoma culture supernatant at 1× and 10× dilution, or isotype control antibody mouse IgM, κ (BD™, Cat. No. 557275) at concentration of 1 μg/ml. A 300× dilution of human cell hyper-immune serum was used as binding positive control for all cell types. PE-conjugated anti-human CD41a (Southern Biotech™, Cat. No. 9391-09) was used as a positive control for staining human platelets. Anti-sialyl Lewis x antibody (Millipore™, Cat. No. MAB2096) was used as a positive control for staining human PMN. Anti-human CD31 (Hycult™, Cat. No. HM2039) was used as a positive control for staining HUVEC. After 30 minutes incubation at 4° C., cells were washed twice with 200 μl FACS buffer (1×PBS containing 1% FBS), stained with 50 μl of 1 μg/ml goat F(ab′)2-anti-mouse IgG(H+L)-PE (Southern Biotech™, Cat. No. 1032-09) or 1 μg/ml goat F(ab′)2-anti-mouse IgM(H+L)-PE (Southern Biotech™, Cat. No. 1022-09) in FACS buffer. After 30 minutes of incubation at 4° C., cells were washed twice with FACS buffer and analyzed by flow cytometry (BD LSR, BD Life Sciences).
# [4] = molecular target: T2, human transferrin receptor expressed by …; experiment: FACS, RBC, donor D102, 1/10x
# Description: as §1, §2
# [5] = molecular target: T2, human transferrin receptor expressed by …; experiment: FACS, platelets, donor D014, 1/10x
# Description: as §1, §2
# [6] = molecular target: human transferrin receptor expressed by nonhematopoietic cancer cells (human) (UniProt P02786); experiment: FACS, Kato III cells, 1/5X
# [7] = molecular target: T2, human transferrin receptor expressed by …; experiment: FACS, monocytes, donor D016, 1x
# Description: as §1, §2
# [8] = molecular target: human transferrin receptor expressed by nonhematopoietic cancer cells (human) (UniProt P02786); experiment: FACS, DLD-1 cells, 1/5X
# [9] = molecular target: T2, human transferrin receptor expressed by …; experiment: FACS, HUVEC, 1x
# Description: as §1, §2
# [10] = molecular target: human transferrin receptor expressed by nonhematopoietic cancer cells (human) (UniProt P02786); experiment: FACS, SU.86.86 cells, 1/5X
# [11] = molecular target: T2, human transferrin receptor expressed by …; experiment: FACS, HUVEC, 1/10x
# Description: as §1, §2
# [12] = molecular target: T2, human transferrin receptor expressed by …; experiment: FACS, RBC, donor D016, 1x
# Description: as §1, §2
# [13] = molecular target: T2, human transferrin receptor expressed by …; experiment: FACS, lymphocytes, donor D016, 1x
# Description: as §1, §2
# [14] = molecular target: T2, human transferrin receptor expressed by …; experiment: FACS, platelets, donor D014, 1x
# Description: as §1, §2
# [15] = molecular target: T2, human transferrin receptor expressed by …; experiment: FACS, RBC, donor D005, 1x
# Description: as §1, §2
# [16] = molecular target: T2, human transferrin receptor expressed by …; experiment: FACS, PMN, donor D005, 1x
# Description: as §1, §2
# [17] = molecular target: T2, human transferrin receptor expressed by …; experiment: FACS, lymphocytes, donor D014, 1x
# Description: Preparation of PBMC and PMN: The whole blood was diluted with an equal volume of PBS and mixed with 1/10 volume of 15% Dextran solution. […] After centrifugation at 2200 rpm for 15 min (rotor: SORVALL, PN11788 and centrifuge: SORVALL, RT7), PBMC concentrated in the interface, were collected and washed with large volumes of FACS buffer (2% FBS in PBS) for future use. The PMN-rich pellet was collected, from which residual RBC was removed by hypotonic lysis in 0.2% NaCl.
# as §2
# [18] = molecular target: T2, human transferrin receptor expressed by …; experiment: FACS, platelets, donor D005, 1x
# Description: as §1, §2
# [19] = molecular target: human transferrin receptor expressed by nonhematopoietic cancer cells (human) (UniProt P02786); experiment: FACS, MDA-MB-453 cells, 1/5X
# [20] = molecular target: T2, human transferrin receptor expressed by …; experiment: FACS, RBC, donor D014, 1x
# Description: as §1, §2
# [21] = molecular target: human transferrin receptor expressed by nonhematopoietic cancer cells (human) (UniProt P02786); experiment: FACS, HEC-1-A cells, 1/5X
# T1 sequence (P02786 whole entry G142S): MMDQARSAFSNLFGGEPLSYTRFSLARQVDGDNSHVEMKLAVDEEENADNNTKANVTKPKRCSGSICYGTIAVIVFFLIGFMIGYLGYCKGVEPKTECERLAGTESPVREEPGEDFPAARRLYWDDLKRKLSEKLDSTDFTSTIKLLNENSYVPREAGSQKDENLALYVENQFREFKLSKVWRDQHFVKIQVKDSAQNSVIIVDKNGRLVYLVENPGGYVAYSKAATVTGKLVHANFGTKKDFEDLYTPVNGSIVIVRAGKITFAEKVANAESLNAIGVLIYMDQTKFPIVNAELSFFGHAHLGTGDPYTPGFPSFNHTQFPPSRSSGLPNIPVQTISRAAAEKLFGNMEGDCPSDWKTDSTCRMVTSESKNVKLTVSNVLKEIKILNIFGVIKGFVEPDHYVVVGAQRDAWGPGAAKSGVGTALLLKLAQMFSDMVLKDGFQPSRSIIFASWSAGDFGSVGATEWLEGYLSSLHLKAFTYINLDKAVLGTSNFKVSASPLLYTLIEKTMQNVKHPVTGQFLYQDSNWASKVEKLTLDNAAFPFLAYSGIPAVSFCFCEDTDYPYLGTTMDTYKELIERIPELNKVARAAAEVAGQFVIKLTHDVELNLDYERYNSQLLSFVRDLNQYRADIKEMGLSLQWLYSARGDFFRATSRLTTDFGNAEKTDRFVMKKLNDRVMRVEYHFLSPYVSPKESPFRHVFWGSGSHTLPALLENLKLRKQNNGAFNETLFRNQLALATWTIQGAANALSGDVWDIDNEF
# Sequence of human transferrin receptor expressed by nonhematopoietic cancer cells (human) (P02786 whole entry G142S): as above
# T2 sequence (P02786 whole entry G142S): as above
Binder,% of gated cells [1],% of gated cells [2],% positive cell binding [3],% positive cell binding [4],% positive cell binding [5],MFI [6],% positive cell binding [7],MFI [8],% positive cell binding [9],MFI [10],% positive cell binding [11],% positive cell binding [12],% positive cell binding [13],% positive cell binding [14],% positive cell binding [15],% positive cell binding [16],% positive cell binding [17],% positive cell binding [18],MFI [19],% positive cell binding [20],other results
B1,1%,< 1%,< 1%,< 1%,< 1%,724 MFI,< 1%,2690 MFI,1%,4600 MFI,1%,1%,< 1%,< 1%,< 1%,< 1%,< 1%,< 1%,16 MFI,1%,MFI [21]: 15 MFI
B2,< 1%,< 1%,< 1%,< 1%,< 1%,1250 MFI,< 1%,3900 MFI,1%,2940 MFI,1%,1%,1%,< 1%,< 1%,1%,1%,< 1%,141 MFI,1%,MFI [21]: 11 MFI
B3,1%,< 1%,< 1%,< 1%,< 1%,97 MFI,1%,104 MFI,2%,96 MFI,3%,1%,1%,< 1%,< 1%,1%,1%,< 1%,65 MFI,1%,MFI [21]: 1240 MFI
